The source of these data is paper PMC12098869, “An mRNA-display derived cyclic peptide scaffold reveals the substrate binding interactions of an N-terminal cysteine oxidase” (Nature Communications, 2025).

Details in all cases: both partners purified
Experiment [1] deals with T1, ADO-I109A, N-terminally His-tagged and biotinylated (human, UniProt Q96SZ5 1-270, I109A, biotin (biotinylated during expression)).
T1 construct: 2-aminoethanethiol dioxygenase (ADO), human, UniProt Q96SZ5, full length, site-directed mutant; source: E. coli Rosetta2(DE3), purified (Ni-NTA, SEC); not shown: biotinylation tag (from the vector pQE80L-Navi), N-terminal, kept
T1 sequence (looked up): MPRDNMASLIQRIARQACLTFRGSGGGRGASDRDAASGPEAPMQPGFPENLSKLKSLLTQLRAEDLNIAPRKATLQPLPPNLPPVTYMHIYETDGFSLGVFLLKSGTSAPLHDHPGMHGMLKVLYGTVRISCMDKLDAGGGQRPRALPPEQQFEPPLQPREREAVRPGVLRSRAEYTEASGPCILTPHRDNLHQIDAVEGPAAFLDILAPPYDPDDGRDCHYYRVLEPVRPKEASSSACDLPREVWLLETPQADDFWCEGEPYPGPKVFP
Description: SPR; biotinylated ADO or ADO mutant immobilised on a Biotin CAP chip (~2500-3000 RU), substrate peptide injected; Biacore T200, 4 °C; 20 mM HEPES pH 7.5, 500 mM NaCl, 10 mM DTT, 0.1% tween-20; 50 µL/minute; multi-cycle or single-cycle mode not given; each cell is one of three independent measurements.

Experiment [2] deals with T2, ADO-Y222A, N-terminally His-tagged and biotinylated (human, UniProt Q96SZ5 1-270, Y222A, biotin (biotinylated during expression)).
T2 construct: 2-aminoethanethiol dioxygenase (ADO), human, UniProt Q96SZ5, full length, site-directed mutant; source: E. coli Rosetta2(DE3), purified (Ni-NTA, SEC); not shown: biotinylation tag (from the vector pQE80L-Navi), N-terminal, kept
T2 sequence (looked up): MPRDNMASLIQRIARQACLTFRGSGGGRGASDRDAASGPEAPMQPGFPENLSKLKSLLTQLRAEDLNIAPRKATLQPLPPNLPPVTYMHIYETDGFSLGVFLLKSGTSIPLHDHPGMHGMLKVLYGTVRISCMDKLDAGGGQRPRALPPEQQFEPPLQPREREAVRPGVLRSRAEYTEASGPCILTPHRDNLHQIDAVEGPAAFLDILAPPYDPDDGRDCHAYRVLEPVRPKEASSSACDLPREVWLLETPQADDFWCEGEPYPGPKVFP
Described as above.

The target of experiment [3] is T3, ADO-Y87A, N-terminally His-tagged and biotinylated (human, UniProt Q96SZ5 1-270, Y87A, biotin (biotinylated during expression)).
T3 construct: 2-aminoethanethiol dioxygenase (ADO), human, UniProt Q96SZ5, full length, site-directed mutant; source: E. coli Rosetta2(DE3), purified (Ni-NTA, SEC); not shown: biotinylation tag (from the vector pQE80L-Navi), N-terminal, kept
T3 sequence (looked up): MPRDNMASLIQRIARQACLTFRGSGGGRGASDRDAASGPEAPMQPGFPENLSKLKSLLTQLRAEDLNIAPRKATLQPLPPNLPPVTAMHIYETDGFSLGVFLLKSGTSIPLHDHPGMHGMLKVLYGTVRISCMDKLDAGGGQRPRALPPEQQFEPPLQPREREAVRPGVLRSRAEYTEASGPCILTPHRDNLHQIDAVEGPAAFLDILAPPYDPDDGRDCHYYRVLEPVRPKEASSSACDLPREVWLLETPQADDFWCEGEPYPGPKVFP
The description is as above.

Experiment [4] addresses T4, ADO-F256A, biotinylated (pQE80L-Navi-ADO) (human, UniProt Q96SZ5 1-270, F256A, biotin on the Avi tag).
T4 construct: Tag as in Dm1; source: E. coli Rosetta2(DE3), purified (Ni-NTA, SEC); not shown: Avi tag, N-terminal, kept; His6, N-terminal, kept
T4 sequence (looked up): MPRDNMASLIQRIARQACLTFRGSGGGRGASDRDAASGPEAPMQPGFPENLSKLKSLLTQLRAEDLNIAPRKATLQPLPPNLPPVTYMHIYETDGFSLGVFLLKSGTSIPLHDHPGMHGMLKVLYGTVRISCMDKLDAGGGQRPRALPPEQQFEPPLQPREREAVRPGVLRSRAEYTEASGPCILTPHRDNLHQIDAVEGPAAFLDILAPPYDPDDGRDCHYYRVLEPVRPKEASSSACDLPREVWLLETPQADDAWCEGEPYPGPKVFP
The experiment is described as follows: SPR; multi-cycle, equilibrium steady state affinity 1:1 binding model; biotinylated ADO or variant immobilised on a Biotin CAP chip (~2500-3000 RU), peptide injected; 4 °C; 20 mM HEPES pH 7.5, 500 mM NaCl, 10 mM DTT, 0.1% (v/v) tween-20; 50 μL/minute. An outline of the steps: (§1)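 Biotinylated full-length human ADO (wild type or engineered forms) was made in E. coli with a His tag, then purified by nickel affinity and gel filtration. It was captured on a Biotin CAP chip at about 2500–3000 RU in a Biacore T200, and peptides were flowed over it. The run was at 4 °C in HEPES pH 7.5 buffer with 500 mM NaCl, DTT and tween-20, at 50 μL/minute. Kd came from a 1:1 steady-state fit of multi-cycle equilibrium responses.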
(In SPR one partner is held on a chip, and binding of the other changes the refractive index at the surface.)

The target of experiment [5] is T5, ADO-D206E, biotinylated (pQE80L-Navi-ADO) (human, UniProt Q96SZ5 1-270, D206E, biotin on the Avi tag).
T5 construct: Tag as in Dm1; source: E. coli Rosetta2(DE3), purified (Ni-NTA, SEC); not shown: Avi tag, N-terminal, kept; His6, N-terminal, kept
T5 sequence (looked up): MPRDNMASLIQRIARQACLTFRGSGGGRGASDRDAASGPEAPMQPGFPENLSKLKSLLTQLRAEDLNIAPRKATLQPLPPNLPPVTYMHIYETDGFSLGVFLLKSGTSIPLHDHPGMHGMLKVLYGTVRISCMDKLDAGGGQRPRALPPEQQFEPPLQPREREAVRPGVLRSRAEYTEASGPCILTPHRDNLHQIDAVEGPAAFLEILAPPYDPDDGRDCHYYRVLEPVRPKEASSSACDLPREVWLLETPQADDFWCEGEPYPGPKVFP
Described as above. An outline of the steps:
as §1

“And” between values parts separate entries of the source, which are not always exact repeats. Identical values can stand only once.

B1: IL32(2-15), synthetic peptide corresponding to the methionine excised N-terminus of IL32, residues 2-15 (peptide, UniProt P24001 2-15, looked up)
peptide: CFPKVLSDDMKKLK
notes: interleukin 32 (IL32), residues 2-15 (N-terminal Cys exposed); also called 14-mer IL32; source: synthetic peptide
As for B1, the Kd – broadly, the concentration at which binding is half-saturated – in experiment [1] was 14.2 µM and 15.1 µM and 18.4 µM; in experiment [2] it was 0.921 µM and 1.04 µM and 1.1 µM; in experiment [3], 4.57 µM and 3.79 µM and 4.17 µM.

B2: IL32_(2-15), synthetic peptide corresponding to the methionine excised N-terminus of IL32, residues 2-15 (peptide, UniProt P24001 2-15, looked up)
peptide: CFPKVLSDDMKKLK
notes: Interleukin 32 (IL32), residues 2-15, N-terminal Cys; also called IL32 peptide; source: synthetic peptide
Consider B2, for which the equilibrium dissociation constant (Kd) was 0.87 µM in experiment [4] and 1.3 µM in experiment [5].
